The record followed here is PMC3373496, “An Evolutionarily Conserved Enhancer Regulates Bmp4 Expression in Developing Incisor and Limb Bud”.

One series has as its target GST-Msx2 (UniProt Q03358 1-267). The experiment in a line: EMSA; 1X phosphate buffer, 10% glycerol, 0.3 mg/ul BSA, 0.1 ug/ul DNaseI-digested poly[dG-dC], 20 ul, on ice 10 min + 20 min with probe; 6% native PAGE, 1x TBE, 4 C. The note with it: protein: recombinant; tags: N-terminal GST (pGEX3X); label: 32P 5' end (PNK) when probe; blunt. Background: A gel shift assay detects complexes by their altered migration in electrophoresis.

The target of a further series is GST-Pitx1 (UniProt P70314 1-315). The experiment in a line: EMSA; 1X phosphate buffer, 10% glycerol, 0.1 ug/ul DNaseI-digested poly[dG-dC], 20 ul, on ice 10 min + 20 min with probe; 6% native PAGE, 1x TBE, 4 C. The following applies: protein: recombinant; tags: N-terminal GST (pGEX3X); label: 32P 5' end (PNK) when probe; blunt.

GST-Msx2, sequence (Q03358 whole entry): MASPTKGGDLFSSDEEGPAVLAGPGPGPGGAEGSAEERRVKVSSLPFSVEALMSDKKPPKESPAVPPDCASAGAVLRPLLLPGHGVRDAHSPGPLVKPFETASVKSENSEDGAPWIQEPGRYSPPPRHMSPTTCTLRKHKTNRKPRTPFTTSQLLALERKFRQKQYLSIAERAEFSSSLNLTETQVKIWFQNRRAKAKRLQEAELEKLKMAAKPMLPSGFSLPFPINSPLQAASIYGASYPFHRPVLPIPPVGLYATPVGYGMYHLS

B1: MutMsxBSCONS3 (dsDNA)
DNA 1: GACCCTATCCGGCCTCATTCCTGAA
DNA 2: TTCAGGAATGAGGCCGGATAGGGTC
For B1, the binding result with GST-Msx2 is given as “no binding”.

B2: WTPitxBSCONS3 (dsDNA)
DNA 1: AGTTCCCTACATAATCCTTACCGTG
DNA 2: CACGGTAAGGATTATGTAGGGAACT
In the case of B2, in the series with GST-Pitx1, the binding result is recorded as “binds”.

B3: WTMsxBSCONS3 (dsDNA)
DNA 1: GACCCTATGTAATTGCATTCCTGAA
DNA 2: TTCAGGAATGCAATTACATAGGGTC
With B3, in the series with GST-Msx2, the binding result is listed as “binds”.

B4: Bicoid (dsDNA)
DNA 1: TCATGCCTGTAATCCCAGCACTCAG
DNA 2: CTGAGTGCTGGGATTACAGGCATGA
Regarding B4, the binding result in the series with GST-Pitx1 is “binds”.

B5: MutPitxBSCONS3 (dsDNA)
DNA 1: AGTTCCCTACAACGCATTTACCGTG
DNA 2: CACGGTAAATGCGTTGTAGGGAACT
For the molecule B5, the binding result with GST-Pitx1 is given as “no binding”.
